Here are results for 1 substance from PMC4918322.

For the assay, the target named is PLK1 (UniProt P53350). The assay is described as follows: anti-V5 co-immunoprecipitation, PLK1 blot. The note with it: reference: wild-type RSF1-C1; sites S1375.

Take “RSF1 C1, 627-1441 (from UniProt Q96T23) S1375A”: the “binding against the reference” value was “lost”.
